Measurements from patent EP4600270A1 (ImnoTech GmbH, dated 2025).

What follows are binders tested against T1, human CD7 (cluster of differentiation 7) (human, UniProt P09564 26-240) (assay: flow cytometry titration on human CD8+ T cells, one-site specific binding fit).
T1 construct: also called CD7 target antigen; CD7 surface marker
T1 sequence: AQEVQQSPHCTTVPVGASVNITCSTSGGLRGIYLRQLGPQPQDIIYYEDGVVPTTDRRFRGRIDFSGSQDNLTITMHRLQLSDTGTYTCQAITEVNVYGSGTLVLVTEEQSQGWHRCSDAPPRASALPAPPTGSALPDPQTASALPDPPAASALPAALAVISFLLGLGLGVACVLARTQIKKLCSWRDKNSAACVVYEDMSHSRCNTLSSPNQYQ

Row | Binder | Kd
1 | SEQ ID NO 4 (VHH, Single domain antibody against human CD7; also called anti-CD7 sdAb) VHH: QVQLQESGGGLVQAGDSLRLSCAASGLTVSSYGMGWFRQAPGKEREFVVDISRGGGSTSYADSVKGRFTIARDNAKNTLYLQMNSLKPEDTAVYSCAARKYAHYEYWGQGTQVTVSS | 5.66 nM
2 | SEQ ID NO 7 (VHH, Single domain antibody against human CD7; also called anti-CD7 sdAb) VHH: QVQLQESGGGLVQAGDSLRLSCAASGLTVSMYGMGWFRQAPGKEREFVADISRGGGSTSYTDSVKGRFTISRDNAKNTLYLQMNSLKPEDTAVYSCAARKYAHYEYRGQGTQVTVSS | 11 nM
3 | SEQ ID NO 9 (VHH, Single domain antibody against human CD7; also called anti-CD7 sdAb) VHH: QVQLQESGGGLVQAGDSLRLSCAASGLTVSSYGMGWFRQAPGKEREFVADISRGGGSTLYADSVKGRFTISRDNGKNTLYLQINSLKPEDTAVYSCAARKYAEWDYWGQGTQVTVSS | 4.04 nM
4 | SEQ ID NO 8 (VHH, Single domain antibody against human CD7; also called anti-CD7 sdAb) VHH: QVQLQESGGGLVQTGDSLRLSCAASGLTVSSYGMGWFRQAPGKEREFVADISRGGGSTLYADSVKGRFTISRDNLKNTLYLQMNSLKPEDTAVYSCAARKYAEWNYWGQGTQVTVSS | 8.16 nM
5 | SEQ ID NO 13 (VHH, Single domain antibody against human CD7; also called anti-CD7 sdAb) VHH: QVQLQESGGGLVQSGGSLRLSCAASRRIFEINVMGWYRQAPEKQRELVGTITSFGGTNYADSVKGRFTISADYAKNTMYLQMNSLNPEDTAVYYCNAHYFSNDYWGQGTQVTVSS | 3.9 nM
6 | SEQ ID NO 2 (VHH, Single domain antibody against human CD7; also called anti-CD7 sdAb) VHH: QVQLQESGGGLVQAGGSLRLSCAASGRTFSDYLMGWFRQTPGKEREFVAAIYWNAGSTYYADSVKGRFTISRDNTKNTMYLQMNSLKPEDTAVYYCAAGQRGLAYARTYDYDYWGQGTQVTVSS | 6.34 nM
